In paper doi:10.1101/2023.09.06.556503 (bioRxiv, 2023) one finds binding result and Kd data, which are given here for five molecules.

The target of assay [1] is Biotinylated SARS-CoV-2 (Wuhan) RBD, held on the SPR chip (SARS-CoV-2 (Wuhan), UniProt P0DTC2, biotin (EZ-Link Sulfo-NHS-LC-biotin); Lys15 within the N-terminal AviTag is named as the biotinylation site). Briefly: SPR. The conditions noted are these: both partners purified.
Assay [2] concerns the target SARS-CoV-2 (Wuhan) receptor-binding domain, soluble monovalent RBD (RBD-H) (SARS-CoV-2 (Wuhan), UniProt P0DTC2). Briefly: SPR. Particulars: both partners purified.

B1: FI-3A antibody (IgG1) (antibody, V domains shown)
VH: EVQLLESGGGLIQPGGSLRLSCAASGFTVSSNYMSWVRQAPGKGLEWVSVIYSGGSTYYADSVKGRFTISRDNSKNTLYLQMNSLRAEDTAVYYCARDHVRPGMNIWGQGTMVTVSS
VL: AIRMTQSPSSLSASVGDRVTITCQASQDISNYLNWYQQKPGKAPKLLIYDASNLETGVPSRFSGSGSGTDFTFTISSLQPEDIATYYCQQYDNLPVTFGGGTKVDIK
notes: source: ExpiCHO, transfected, purified (MabSelect SuRe); copies: 2 + 2
In the case of B1, the binding result in assay [1] and in assay [2] was “binds” in each case.

B2: EY-6A antibody (IgG1) (antibody, V domains shown)
VH: EVQLVESGGGVVQPGRSLRLSCAASAFTFSSYDMHWVRQAPGKGLEWVAVISYDGSNKYYADSVKGRFTISRDNSKNTLYLQMNSLRAEDTAVYYCAKDGGKLWVYYFDYWGQGTLVTVSS
VL: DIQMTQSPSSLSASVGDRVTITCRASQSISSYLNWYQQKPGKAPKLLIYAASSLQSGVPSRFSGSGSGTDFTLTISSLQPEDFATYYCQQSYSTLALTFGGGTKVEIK
notes: copies: 2 + 2
With B2, the binding result in assay [1] and in assay [2] was “binds” throughout.

B3: FD-5D antibody (IgG1) (antibody, V domains shown)
VH: EVQLVESGGGLVQPGGSLRLSCAASGFTFSSYSMNWVRQAPGKGLEWVSYISSSSSTIYYADSVKGRFTISRDNAKNSLYLQMNSLRAEDTAVYYCASPGGITAAGTSVLFGYYGMDVWGQGTTVTVSS
VL: not shown
notes: as for B1
With B3, the binding result in assay [1] and in assay [2] was “binds” each time.

B4: REGN10987 antibody (IgG1) (antibody, V domains shown)
VH: QVQLVESGGGVVQPGRSLRLSCAASGFTFSNYAMYWVRQAPGKGLEWVAVISYDGSNKYYADSVKGRFTISRDNSKNTLYLQMNSLRTEDTAVYYCASGSDYGDYLLVYWGQGTLVTVSS
VL: QSALTQPASVSGSPGQSITISCTGTSSDVGGYNYVSWYQQHPGKAPKLMIYDVSKRPSGVSNRFSGSKSGNTASLTISGLQSEDEADYYCNSLTSISTWVFGGGTKLTVL
Turning to B4, in assay [1], the binding result is “binds”.

B5: IgG1 FD-11A antibody (antibody, V domains shown)
VH: EVQLVESGGGVVQPGRSLRLSCAASGFTFSSYGMHWVRQAPGKGLEWVAVIWYDGSNKYYADSVKGRFTISRDNSKNTLYLQMNSLRAEDTAVYYCAKGPDILTGYYNYYYYGMDVWGQGTMVTVSS
VL: QSVLTQPPSVSGAPGQRVTISCTGSSSNIGAGYDVHWYQQLPGTAPKLLIYGNSNRPSGVPDRFSGSKSGTSASLAITGLQAEDEADYYCQSYDSSLSGFYVVFGGGTKLTVL
notes: also called FD-11A IgG; source: ExpiCHO, transfected, purified (MabSelect SuRe); copies: 2 + 2
As usually defined, the Kd is a measure of binding affinity in units of concentration. Low readings indicate a tighter complex, high ones a looser complex. In assay [1], B5 displayed a Kd of 1230 nM. In other words, the single-digit micromolar range.
